PMC2847487
Blank lines part the entries; values can stand above or below the molecule they belong to.

Columns and labels:
[1] = molecular target: C-terminal myc-tagged sortilin (UniProt Q99523); experiment: co-IP
[2] = molecular target: triple-site mutant proNGF (mouse, cleavage-resistant) (mouse); experiment: crystal structure
[3] = molecular target: sortilin extracellular region with C-terminal biotinylation acceptor peptide, biotinylated (human) (human) (UniProt Q99523); experiment: SPR
[4] = size exclusion chromatography of p75NTR alone; settings: glycan lost; control: wild-type glycosylated p75NTR

Molecule: N-terminal HA tagged-proNGF (from UniProt P01139 122-241) (ligand)
fold increase of the proNGF:sortilin interaction with calcium over EDTA [1]: 2.3 fold

B1: p75NTR: Asn32 to Asp (protein)
parent chain: MRRAGAACSAMDRLRLLLLLILGVSSGGAKETCSTGLYTHSGECCKACNLGEGVAQPCGANQTVCEPCLDNVTFSDVVSATEPCKPCTECLGLQSMSAPCVEADDAVCRCAYGYYQDEETGHCEACSVCEVGSGLVFSCQDKQNTVCEECPEGTYSDEANHVDPCLPCTVCEDTERQLRECTPWADAECEEIPGRWIPRSTPPEGSDSTAPSTQEPEVPPEQDLVPSTVADMVTTVMGSSQPVVTRGTTDNLIPVYCSILAAVVVGLVAYIAFKRWNSCKQNKQGANSRPVNQTPPPEGEKLHSDSGISVDSQSLHDQQTHTQTASGQALKGDGNLYSSLPLTKREEVEKLLNGDTWRHLAGELGYQPEHIDSFTHEACPVRALLASWGAQDSATLDALLAALRRIQRADIVESLCSESTATSPV
oligomerisation [4]: no change

More lines, now with the values ahead:

stoichiometry N (p75NTR per proNGF chain (2:2)) [2]: 1
Molecule: p75NTR extracellular portion, Asn32 to Asp glycosylation site mutant (rat) (from UniProt P07174 29-190) (receptor)

Kd [3]: 140 nM
Molecule: proNGF/p75NTR complex (preformed) (from UniProt P07174 29-190)
